Results: the supplement of paper PMC9732359
± gives the uncertainty stated by the source.

Assay: protein stability index of a GFP-peptide fusion (yeast GPS) (PSI 1-4); higher = more stable; sorted into four equal gates, so the index is relative within each strain
Outline: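 The protein stability index combines read frequencies across sorting gates, each weighted by its gate number and then summed. To obtain those frequencies, a pooled yeast library of GFP fusions to tiled 17-residue yeast protein peptides, on a plasmid also expressing Cherry, was grown to mid-log phase in leucine-free medium. The cells were sorted into four equal gates by GFP/Cherry ratio before plasmid amplification by PCR and Illumina sequencing.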

NNIEENLRLLNSIDSTS [ECM29]
protein stability index (doa10∆): 3.21 ± 0.06
protein stability index (pdr5∆): 3.33 ± 0.057
protein stability index (san1∆): 3.18 ± 0.044
protein stability index (ubr1∆): 3.21 ± 0.046

FVSSGFDTSIKLDIISD [RPN14]
protein stability index (doa10∆): 2.39 ± 0.045
protein stability index (pdr5∆): 2.53 ± 0.047
protein stability index (san1∆): 2.23 ± 0.057
protein stability index (ubr1∆): 2.44 ± 0.035

ITNKHQEGLAKFGACVA [RPN2]
protein stability index (doa10∆): 1.78 ± 0.054
protein stability index (pdr5∆): 1.97 ± 0.038
protein stability index (san1∆): 2.54 ± 0.092
protein stability index (ubr1∆): 2.51 ± 0.035

VQISNIPDIGDLPDTEG [PRP8]
protein stability index (doa10∆): 3.24 ± 0.07
protein stability index (pdr5∆): 3.29 ± 0.059
protein stability index (san1∆): 3.2 ± 0.049
protein stability index (ubr1∆): 3.23 ± 0.043

YIFFGPIYYQKLKHMVL [RET1]
protein stability index (doa10∆): 1.2 ± 0.062
protein stability index (pdr5∆): 1.38 ± 0.1
protein stability index (san1∆): 1.28 ± 0.12
protein stability index (ubr1∆): 1.39 ± 0.062

KNSTSSMTAVPKPLKFL [RPN1]
protein stability index (doa10∆): 2.03 ± 0.071
protein stability index (pdr5∆): 2.31 ± 0.072
protein stability index (san1∆): 1.98 ± 0.062
protein stability index (ubr1∆): 2.15 ± 0.069

SLLKTKLKQQSSTDIPS [RRI1]
protein stability index (doa10∆): 2.15 ± 0.05
protein stability index (pdr5∆): 2.4 ± 0.054
protein stability index (san1∆): 2.21 ± 0.082
protein stability index (ubr1∆): 2.44 ± 0.062

LCRQGHNMLNLLIHRKG [PRP8]
protein stability index (doa10∆): 2.33 ± 0.061
protein stability index (pdr5∆): 2.55 ± 0.068
protein stability index (san1∆): 2.31 ± 0.091
protein stability index (ubr1∆): 2.23 ± 0.041

KKNSSRPMPPIRGPKRR [SMD3]
protein stability index (doa10∆): 2.23 ± 0.043
protein stability index (pdr5∆): 1.86 ± 0.037
protein stability index (san1∆): 2.14 ± 0.055
protein stability index (ubr1∆): 2.81 ± 0.036

EGEYELTEAVEDGPRPF [RPL5]
protein stability index (pdr5∆): 3.31 ± 0.17
protein stability index (san1∆): 3.38 ± 0.066

FYVQDVYKDNLSFIQVR [RPO31]
protein stability index (doa10∆): 1.98 ± 0.049
protein stability index (pdr5∆): 1.69 ± 0.05
protein stability index (san1∆): 1.92 ± 0.068
protein stability index (ubr1∆): 1.88 ± 0.041

PANHLQSDFCLSWCPSR [YGL100W/SEH1]
protein stability index (doa10∆): 1.8 ± 0.18
protein stability index (pdr5∆): 2.05 ± 0.12
protein stability index (san1∆): 2.43 ± 0.16
protein stability index (ubr1∆): 2.4 ± 0.06

SVLQLIVSEDHIILDTI [MED1]
protein stability index (doa10∆): 2.2 ± 0.17
protein stability index (pdr5∆): 2.7 ± 0.19
protein stability index (ubr1∆): 2.08 ± 0.26

SILEEKIAVLNNDKREI [SMC1]
protein stability index (doa10∆): 3.21 ± 0.071
protein stability index (pdr5∆): 3.38 ± 0.057
protein stability index (san1∆): 3.25 ± 0.051
protein stability index (ubr1∆): 3.33 ± 0.061

NTFQKTVEPVYQMHIKT [FAS1]
protein stability index (doa10∆): 1.68 ± 0.038
protein stability index (pdr5∆): 1.78 ± 0.046
protein stability index (san1∆): 1.58 ± 0.062
protein stability index (ubr1∆): 1.5 ± 0.059

MLGRAGRPRYDTFGEGI [BRR2]
protein stability index (doa10∆): 3.25 ± 0.12
protein stability index (pdr5∆): 2.81 ± 0.14
protein stability index (san1∆): 3.15 ± 0.087
protein stability index (ubr1∆): 3.31 ± 0.15

TKSSKEFFNTLRKSRET [RRI2]
protein stability index (doa10∆): 2.63 ± 0.15
protein stability index (pdr5∆): 3.42 ± 0.13
protein stability index (san1∆): 3.06 ± 0.074
protein stability index (ubr1∆): 2.92 ± 0.11

TISVPQIRDVMERFSVL [RRP6]
protein stability index (doa10∆): 2.58 ± 0.094
protein stability index (pdr5∆): 2.7 ± 0.097
protein stability index (san1∆): 2.5 ± 0.12
protein stability index (ubr1∆): 2.68 ± 0.13

SNPQHIIQPFLDNSKMD [RGR1]
protein stability index (doa10∆): 2.91 ± 0.062
protein stability index (pdr5∆): 2.98 ± 0.075
protein stability index (san1∆): 2.53 ± 0.077
protein stability index (ubr1∆): 2.86 ± 0.034
